Earlier results as cited in article PMC8193598.
“And” between values parts separate entries of the source, which are not always exact repeats. Equal entries are not always repeated. Where two headings read alike, the source gives them in different places.

Tests used:
[1] = molecular target: spike protein (SARS-CoV-2) (UniProt P0DTC2)
[2] = molecular target: spike protein (SARS-CoV-2) (UniProt P0DTC2); remark: listed apart in the source
[3] = molecular target: SARS-CoV-2 S1 CendR peptide CendR peptide (SARS-CoV-2) (UniProt P0DTC2)

ASGR1, sequence (P07306 whole entry): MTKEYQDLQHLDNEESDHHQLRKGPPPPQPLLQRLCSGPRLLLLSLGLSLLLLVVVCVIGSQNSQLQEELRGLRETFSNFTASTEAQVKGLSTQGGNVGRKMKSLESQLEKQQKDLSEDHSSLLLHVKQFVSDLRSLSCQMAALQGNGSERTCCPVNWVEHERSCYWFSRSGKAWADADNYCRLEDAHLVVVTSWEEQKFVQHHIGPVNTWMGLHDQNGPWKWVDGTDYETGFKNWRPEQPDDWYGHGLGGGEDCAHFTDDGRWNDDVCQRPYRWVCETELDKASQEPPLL
KREMEN1, sequence (Q96MU8 20-392): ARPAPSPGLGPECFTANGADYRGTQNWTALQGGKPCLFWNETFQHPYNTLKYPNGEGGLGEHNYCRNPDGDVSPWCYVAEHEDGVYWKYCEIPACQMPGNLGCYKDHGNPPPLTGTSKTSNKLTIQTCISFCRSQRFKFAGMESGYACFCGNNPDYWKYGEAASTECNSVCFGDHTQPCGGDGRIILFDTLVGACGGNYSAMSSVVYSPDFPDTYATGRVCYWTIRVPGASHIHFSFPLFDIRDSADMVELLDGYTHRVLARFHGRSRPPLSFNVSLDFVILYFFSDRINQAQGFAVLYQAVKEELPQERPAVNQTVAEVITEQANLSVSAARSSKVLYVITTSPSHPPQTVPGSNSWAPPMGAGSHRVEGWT

For KREMEN1 (from UniProt Q96MU8), the Kd [1] is listed as 0.0193 µM.

For ASGR1 (from UniProt P07306), the Kd [2] is listed as 0.0948 µM.

In the case of “neuropilin-1 coagulation factor domain (from UniProt O14786)”, the Kd [3] is listed as 20.3 µM and 13 µM.
